The test system of this experiment is C. auris AR-0386. The experiment in a line: Passive transfer of mAbs or two mAbs in combination in A/J mouse model of invasive C. auris infection. The class given is in vivo, Candida auris. The protocol: A. Complement protein C5-defecient A/J mice were treated with one of the five mAb or with DPBS as a vehicle control. The following day, mice were challenged with 1×10^8 C. auris cells/100 ul DPBS dose per mouse. […] B. Fungal burdens in the kidneys (top), heard (center), and brain (bottom).
Identified protective mAbs were obtained by use of standard hybridoma technique and purified by use of protein A/G. A/J mice were given an i.p. dose of either single mAb or two mAbs in combination 24 hours before hematogensous challenge with a lethal dose (2×108) of C. auris AR-0386 live cells. Mice received either 9G2F5 alone or 6H1G8 alone or 9F2G5 and 3H7E3 in combination had 40% survival rate respectively, with prolonged survival as compared to control animals that received DPBS buffer control.
Evaluation and validation of a panel of peptide-specific monoclonal antibodies (mAbs) as a passive immunization strategy protect against invasive C. auris infection in established A/J mouse model of human disease.
The monoclonal antibodies used in this experiment were: • 6H1G8 (IgG2b), α-Hwp1 (Hyphal wall protein) • 3E2G2 (IgG2b), α-Fba (Fructose bisphosphate aldolase) • 10E7E2 (IgG1), α-GPV-P3 (General peptide vaccine 3 from Phosphoglycerate kinase) • 9F2G5 (IgG2a), α-Pgk1 (Phosphoglycerate kinase) • 3H7E3 (IgG1), α-Met6 (Methyltetrahydropteroyltriglutamate)

Here are results for one molecule from patent US11707511B2, “Vaccine compositions and methods of using the same” (The Board of Supervisors of Louisiana State University and …, priority 2017, dated 2023).

B1: 10E7E2: IgG1 mAb of hybridoma 10E7E2, specific for GPV-P3; VH SEQ ID NO: 72, VL SEQ ID NO: 74 (antibody, V domains shown)
VH: QVQLKQSGPGLVQPSQSLSITCTVSGFSLTSYGVHWVRQSPGKGLEWLGVIWSGGTTDYNAAFISRLSISKDNSKSQVFFKMNSLQANDTAIYYCARGGHRGFAYWGQGTLVTVSA
VL: DIVMTQSHKFMSTSVGDRVSITCKASQDVGTAVAWYQQKPGQSPKLLIYWASTRHTGVPDRFTGSGSGTDFTLTISNVQSEDLADYFCQQYSSYPLTFGAGTKLELK
Take B1: for the setting “A/J mouse model, in words”, the “fungal burdens in targeted organs” value is reported as “lower fungal loads” and the “protection against C. auris invasive infection” value is recorded as “protect against C. auris invasive infection”. The survival (FIG. 15A, A/J mice, 1×10^8 C. auris cells, experiment terminated 40 days post challenge) worked out at 25%. Also, under “Table 19, A/J strain mice”, the “Protection against C. auris” value is reported as 80-100% and the “Protection against C. auris (grade word)” value was “High”.
